{"source": "patent US7888090B2", "about": "“Mutants of O6-alkylguanine-DNA alkyltransferase” (Ecole Polytechnique Federale de Lausanne, priority 2004, dated 2011)", "molecules": {"B1": {"name": "Cys62Ala, Lys125Ala, Ala127Thr, Arg128Ala, Asn157Gly, Ser159Glu, truncated after Gly182: particularly preferred hAGT mutant with the listed mutations (protein, UniProt P16455 1-207, looked up, variant C62A K125A A127T R128A N157G S159E del183-207)", "Methylated-DNA--protein-cystei …": "MDKDCEMKRTTLDSPLGKLELSGCEQGLHEIKLLGKGTSAADAVEVPAPAAVLGGPEPLMQATAWLNAYFHQPEAIEEFPVPALHHPVFQQESFTRQVLWKLLKVVKFGEVISYQQLAALAGNPAATAAVGGAMRGNPVPILIPCHRVVCSSGAVGGYEGGLAVKEWLLAHEGHRLGKPGLG"}}, "key": {"[1]": {"assay": "Periplasmic expression / stability under oxidizing conditions", "parameters": "species or system E. coli", "protocol": "The activities towards AGT substrates are measured after purification without addition of reducing agents such as dithiothreitol or beta-mercaptoethanol. Alternatively, the activities of mutant AGT and wild type human are compared after their export into cellular compartments with oxidising redox potential (e.g. the periplasm of E. coli due to their fusion to appropriate signal sequences. Activity towards AGT substrates under reducing and oxidising conditions is compared by performing the reactions in the presence or absence of reducing agents such as dithiothreitol or beta-mercaptoethanol.\nThe mutant AGT gene of Example 1 is amplified and cloned as described in Example 1 with the oligonucleotides SEQ ID NO:3, SEQ ID NO:10 and SEQ ID NO:4, SEQ ID NO:9 causing the further mutation Cys62Ala in the gene upon their incorporation by PCR. Protein expression, purification and determination of yield is carried out as described in Example 1. The mutant gene is PCR amplified with the primers SEQ ID NO:11, SEQ ID NO:12 that contain SfiI restriction sites to subclone the gene in fusion to the g3 protein of filamentous phage in the vector pAK100 (Krebber et al., J Immunol Methods 201:35-55, 1997). […] The supernatant is directly subjected to quantification of protein yield via SDS-PAGE and activity assays as described in Example 1.\nStability under oxidizing conditions: The mutant gene is PCR amplified with the primers SEQ ID NO:11 and SEQ ID NO:28 to subclone the gene into pAK100, as described in Example 2. […] To compare the reactivity of […] (Juillerat et al., Chem Biol 10:313-317, 2003) and the mutant, samples are incubated with 1 µM BG-Bt for 50 min, quenched with SDS-Laemmli buffer and analyzed by western blotting using neutravidin peroxidase conjugate (Pierce) or a monoclonal mouse anti-FLAG IgG antibody (M2, Sigma) and a secondary anti-mouse-IgG::HRP conjugate, and Renaissance reagent plus (NEN). […] The anti-FLAG IgG antibody is used to estimate the total amount of soluble AGT protein, whereas neutravidin quantifies the reactive portion of it. […]"}, "[2]": {"assay": "Activity assay with biotinylated O^6-benzylguanine (BG-Bt), Western blotting", "type": "biochemical", "conditions": "statement in words", "outline": "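Purified mutant GST-AGT (0.2 μM) reacted with 1 μM biotinylated O^6-benzylguanine in 50 mM HEPES pH 7.2, 1 mM DTT at room temperature. Time-point aliquots quenched with O^6-benzylguanine in SDS buffer. Biotinylated protein detected by Western blot with neutravidin-peroxidase, band intensity quantified.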"}, "[3]": {"assay": "Expression yield of soluble GST-AGT fusion protein", "parameters": "species or system E. coli", "conditions": "comparator not stated", "protocol": "Expression yield is measured in E. coli or in any other of the standard production cells for genetically modified proteins, e.g. yeast, or preferably insect cells, CHO cells or HeLa cells. For quantifying expression yield, AGT fusion proteins may be chosen such that the fusion partner allows easy purification and quantification. For example, expression yield in E. coli is determined by measuring and comparing the yield of soluble and insoluble GST-wild type AGT fusion protein and GST-mutant AGT fusion protein from parallel E. coli expression cultures. Samples of the soluble fractions and insoluble fractions (i.e. the inclusion bodies) after cell lysis are subjected to SDS-PAGE, and the band staining intensities of the corresponding AGT fusion proteins are compared. Soluble protein is quantified after purification of the fusion protein from cell extracts by affinity chromatography (e.g. for GST-AGT fusion proteins by glutathione sepharose) by subjecting the purified fractions to a protein concentration assay (Bradford, Anal Biochem 72:248-54, 1976). The expression yield of similar proteins in the soluble fraction (difference in point mutations) can be used as a measure for protein stability in the unpurified as well as the purified state (Ohage et al., J Mol Biol 291:1119-1128, 1999; Wirtz et al., Protein Sci 8: 2245-50, 1999). Therefore, this is taken as a measure of folding stability and aggregation tendency.\nProtein expression from this vector is carried out in E. coli strain BL21. An exponentially growing culture is induced with 0.5 mM IPTG, and the expression is carried out for 3.5 h at 24° C.\nPurification: The harvested cells are resuspended in a buffer containing 50 mM phosphate, 0.5 M NaCl, 1 mM DTT, supplemented with 1 mM PMSF and 2 μg/ml aprotinin, and disrupted by lysozyme and sonification. The cell debris are separated by centrifugation at 40000×g. The extract is applied to pre-equilibrated glutathione sepharose (Amersham) which is then washed with 20 bed volumes (50 mM phosphate, 0.5 M NaCl, 1 mM DTT). The mutated GST-AGT fusion protein is eluted with 10 mM reduced glutathione in 50 mM Tris·HCl pH 7.9. The purified protein is dialyzed against 50 mM HEPES pH 7.2; 1 mM DTT; 30% glycerol and then stored at −80° C.\nDetermination of protein yield: Purity and relative amounts of the GST-AGT fusion proteins are compared by running samples on SDS-PAGE. UV spectra of the pure fractions are recorded using a Perkin Elmer Lambda 10. For protein samples containing no significant amount of DNA, the extinction at 280 nm as a measure of protein content is compared to that of wild type hAGT or PGEG-hAGT that were purified under the same conditions."}, "[4]": {"test_system": "DNA", "assay": "DNA binding in vitro (co-purified DNA, UV spectroscopy)", "parameters": "species or system E. coli", "protocol": "The interaction with DNA is e.g. quantified by assessing the amount of copurified DNA from E. coli extracts under conditions of low salt and absence of DNase. This is compared between parallel purifications of fusion proteins (e.g. fusions to GST) of wild type (human) and mutant AGT by spectroscopic methods (ratio of absorbance at 260 and 280 nm). Alternatively the interaction of AGT with DNA is measured as the inhibition of AGT reactivity with BG-Cy3 (O^6-(4-aminomethyl-benzyl)-guanine coupled to Cy3) as substrate in the presence of DNA. This approach takes advantage of a marked increase of fluorescence of the Cy3 fluorophore upon reaction of BG-Cy3 with AGT. The reaction kinetics of AGT with a Cy3-labeled benzylguanine derivative is followed by fluorescence intensity measurements over several hours at various concentrations of salmon sperm DNA.\nFor comparing the DNA binding properties of the protein in vitro, the harvested cells are resuspended, and the GST fusion protein is purified following the same method but in a buffer containing 50 mM phosphate, 0.1 M NaCl, 1 mM DTT. In the dialysed samples, the amount of subsequently co-purified DNA is estimated by UV spectroscopy. Spectra are recorded using a Perkin Elmer Lambda 10. The content of DNA corresponds to the ratio of the extinctions at 280 and 260 nm. […]"}}}
{"molecule": "B1", "values": [{"measurement": "sensitivity to oxidation", "setting": "[1]", "result": "reduced sensitivity to oxidation"}, {"measurement": "activity towards O^6-benzylguanine substrates", "setting": "[2]", "result": "increased reactivity"}, {"measurement": "expression yield in E. coli", "setting": "[3]", "result": "increased expression yield"}, {"measurement": "reduced DNA binding", "setting": "[4]", "result": "reduced DNA binding"}]}
